Patent publication US20230279124A1

Target: human IgE (human) (UniProt P01854)
Experiment: BLI (Octet RED 384), GI-305 captured on AHC biosensor, IgE 1.6 to 100 nM as analyte

Chain of UniProt P01854 (P01854 other isoform, or with tags, fused parts or gaps): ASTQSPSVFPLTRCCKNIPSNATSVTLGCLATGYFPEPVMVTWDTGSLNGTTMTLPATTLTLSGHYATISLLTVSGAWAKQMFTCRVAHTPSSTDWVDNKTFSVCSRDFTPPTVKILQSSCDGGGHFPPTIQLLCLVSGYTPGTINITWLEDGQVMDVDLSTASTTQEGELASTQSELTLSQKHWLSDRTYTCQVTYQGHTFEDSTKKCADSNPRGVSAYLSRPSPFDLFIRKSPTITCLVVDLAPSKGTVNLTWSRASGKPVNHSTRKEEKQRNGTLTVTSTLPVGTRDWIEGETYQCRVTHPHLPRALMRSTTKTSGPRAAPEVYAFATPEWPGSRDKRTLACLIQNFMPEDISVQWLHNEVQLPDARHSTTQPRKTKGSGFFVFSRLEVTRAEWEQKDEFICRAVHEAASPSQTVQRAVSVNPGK

B1: GI-305 (FcεRIα ECD-Fc-anti-IL-4R scFv) fusion protein dimer (Fc fusion)
chain: VPQKPKVSLNPPWNRIFKGENVTLTCNGNNFFEVSSTKWFHNGSLSEETNSSLNIVNAKFEDSGEYKCQHQQVNESEPVYLEVFSDWLLLQASAEVVMEGQPLFLRCHGWRNWDVYKVIYYKDGEALKYWYENHNISITNATVEDSGTYYCTGKVWQLDYESEPLNITVIKAPREKYWLQGSGGGGSGGGGSGGGGSAESKYGPPCPPCPAPEAAGGPSVFLFPPKPKDQLMISRTPEVTCVVVDVSQEDPEVQFNWYVDGVEVHNAKTKPREEQFNSTYRVVSVLTVLHQDWLNGKEYKCKVSNKGLPSSIEKTISKAKGQPREPQVYTLPPSQEEMTKNQVSLTCLVKGFYPSDIAVEWESNGQPENNYKTTPPVLDSDGSFFLYSRLTVDKSRWQEGNVFSCSVLHEALHNHYTQKSLSLSLGGGGGSGGGGSGGEVQLVESGGGLEQPGGSLRLSCAGSGFTFRDYAMTWVRQAPGKCLEWVSSISGSGGNTYYADSVKGRFTISRDNSKNTLYLQMNSLRAEDTAVYYCAKDRLSITIRPRYYGLDVWGQGTTVTVSSGGGGSGGGGSGGGGSGGGGSDIVMTQSPLSLPVTPGEPASISCRSSQSLLYSIGYNYLDWYLQKSGQSPQLLIYLGSNRASGVPDRFSGSGSGTDFTLKISRVEAEDVGFYYCMQALQTPYTFGCGTKLEIK
- Kd: 0.5 nM
- koff: 9.74e-05 s⁻¹
- kon: 201000 M⁻¹ s⁻¹
